Data from publication PMC8113471, “Tanc2-mediated mTOR inhibition balances mTORC1/2 signaling in the developing mouse brain and human neurons” (Nature Communications, 2021).

B1: GST-Tanc2 (full-length) (natural protein)
chain: not shown
notes: Tanc2, human, aa 1-1990, subcloned from p3XFlag-Tanc2 (aa 1-1990) into pGEX-6P-1; Kept on the glutathione beads as bait; also called purified Tanc2 protein; pGST-Tanc2 (aa 1-1990); source: E. coli BL-21 (DE3), purified on glutathione sepharose 4B beads
B2: GST-Tanc2-N (aa 1-1358) (domain or fragment)
chain: not shown
notes: Tanc2, human, aa 1-1358, in pGEX-6P-1; also called N-terminal region of purified Tanc2; pGST-Tanc2-N; source: E. coli BL-21 (DE3), purified on glutathione sepharose 4B beads
B3: GST-Tanc2-C (aa 1359-1990) (domain or fragment)
chain: REIQRLLLRVEEECRQMQQPQQPPPPPQPQQQLPEEAEPEPQHEDIYSVQDIFEEEYLEQDVENVSIGLQTEARPSQGLPVIQSPPSSPPHRDSAYISSSPLGSHQVFDFRSSSSVGSPTRQTYQSTSPALSPTHQNSHYRPSPPHTSPAHQGGSYRFSPPPVGGQGKEYPSPPPSPLRRGPQYRASPPAESMSVYRSQSGSPVRYQQETSVSQLPGRPKSPLSKMAQRPYQMPQLPVAVPQQGLRLQPAKAQIVRSNQPSPAVHSSTVIPTGAYGQVAHSMASKYQSSQGDIGVSQSRLVYQGSIGGIVGDGRPVQHVQASLSAGAICQHGGLTKEDLPQRPSSAYRGGVRYSQTPQIGRSQSASYYPVCHSKLDLERSSSQLGSPDVSHLIRRPISVNPNEIKPHPPTPRPLLHSQSVGLRFSPSSNSISSTSNLTPTFRPSSSIQQMEIPLKPAYERSCDELSPVSPTQGGYPSEPTRSRTTPFMGIIDKTARTQQYPHLHQQNRTWAVSSVDTVLSPTSPGNLPQPESFSPPSSISNIAFYNKTNNAQNGHLLEDDYYSPHGMLANGSRGDLLERVSQASSYPDVKVARTLPVAQAYQDNLYRQLSRDSRQGQTSPIKPKRPFVESNV
notes: Tanc2, human, aa 1359-1990, in pGEX-6P-1; also called C-terminal region of purified Tanc2; pGST-Tanc2-C; source: E. coli BL-21 (DE3), purified on glutathione sepharose 4B beads

Target: mTOR recombinant protein (Origene #TP320457) (UniProt P42345 1-2549)
Assay: pull-down; GST-Tanc2 proteins (full-length, N, C) immobilised on glutathione agarose beads, incubated with mTOR recombinant protein (0.5 µg) or Deptor protein in RIPA buffer for 2 h at 4 °C; washed three times; Coomassie staining or immunoblot
Conditions: both partners purified

Binding result, binds:
B1
B2
B3
